Measured values reported in patent publication US20050064507A1, “Determining kinase specificity” (priority 2003, published 2005).

Target: T1, PKC-theta (Homo sapiens, UniProt Q04759)
T1 construct: His-tag; made in house; host or cells: baculovirus-infected Sf9 cells
Assay: In vitro kinase assay: peptide phosphorylation by PKC-theta
Type: biochemical
Method in brief: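 Recombinant human PKC-theta, expressed in baculovirus-infected Sf9 cells and purified on a nickel chelating column, was incubated with biotinylated peptides, 100 μM ATP containing ^32P-gamma ATP, and PKC buffer with CaCl2, MgCl2, phosphatidyl serine and PMA at 30° C. Reactions were stopped with ATP/EDTA. Peptides were captured on streptavidin-coated plates, and phosphorylation was normalized to the best substrate.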

T1 sequence (Q04759 whole entry): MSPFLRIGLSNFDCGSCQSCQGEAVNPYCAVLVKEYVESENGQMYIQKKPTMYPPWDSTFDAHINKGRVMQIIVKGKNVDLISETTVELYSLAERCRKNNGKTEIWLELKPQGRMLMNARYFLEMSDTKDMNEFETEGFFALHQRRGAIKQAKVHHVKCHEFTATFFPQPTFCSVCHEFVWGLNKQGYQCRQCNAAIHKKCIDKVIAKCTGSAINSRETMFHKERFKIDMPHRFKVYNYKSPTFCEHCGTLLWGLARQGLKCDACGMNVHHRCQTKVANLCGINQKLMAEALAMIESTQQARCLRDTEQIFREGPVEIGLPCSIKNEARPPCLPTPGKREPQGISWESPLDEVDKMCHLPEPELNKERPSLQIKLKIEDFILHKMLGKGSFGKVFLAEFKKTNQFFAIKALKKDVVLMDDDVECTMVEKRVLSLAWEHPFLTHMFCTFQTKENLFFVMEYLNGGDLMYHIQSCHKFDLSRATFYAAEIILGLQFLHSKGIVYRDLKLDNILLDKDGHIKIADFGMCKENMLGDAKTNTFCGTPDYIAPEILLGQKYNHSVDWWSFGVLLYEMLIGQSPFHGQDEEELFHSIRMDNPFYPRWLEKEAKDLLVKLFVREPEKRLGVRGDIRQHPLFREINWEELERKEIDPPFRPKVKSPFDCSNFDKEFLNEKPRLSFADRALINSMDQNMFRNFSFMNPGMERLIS

Substance	phosphorylation by PKC theta (peptide concentration 1 uM)	phosphorylation by PKC theta (peptide concentration 10 uM)
141 (VTDSQKRREILSRRPSYRKI) [compound 141]	29	28
142 (ERHVAQKKSRLRRRASQLKI) [compound 142]	28	37
143 (VRYTPYTISPYNRKGSFRKQ) [compound 143]	25	27
144 (LSSMFGTLPRKSRKGSVRKQ) [compound 144]	35	22
145 (ISDFGLAKKLAVGRHSFSRR) [compound 145]	27	25
146 (QAQRQIKRGAPPRRSSIRNA) [compound 146]	33	34
147 (RDIRQSPKRGFLRSASLGRR) [compound 147]	20	69
154 (KKFFTQGWAGWRKKTSFRKP) [compound 154]	34	21
155 (RWDKRRWRKIPKRPGSVHRT) [compound 155]	23	26
156 (SAQITIPKDGQKRKKSLRKK) [compound 156]	18	23
157 (PSPSNETPKKKKKRFSFKKS) [compound 157]	20	23
158 (VQMTWSYPDEKNKRASVRRR) [compound 158]	19	23
159 (LYARLARAYRRSQRASFKRA) [compound 159]	21	17
160 (PFEVVWYKDKRQLRSSKKYK) [compound 160]	19	25
161 (KYKAFIRIPIPTRRHTFRRQ) [compound 161]	19	23
162 (KKKFSFKKPFKLSGLSFKRN) [compound 162]	14	13
163 (PPRTPGWHQLQPRRVSFRGE) [compound 163]	14	11
164 (TEGKMARVAWKGKRRSKARK) [compound 164]	24	20
165 (TEEKSKKRKKKHRKNSRKHK) [compound 165]	16	14
166 (MAQIERGEARIQRRISIKKA) [compound 166]	13	13
167 (GLPAPGEDKSIYRRGSRRWR) [compound 167]	12	14
